The Kd is the constant that tells how readily two partners part at equilibrium. A higher Kd goes with lower affinity.

The source of these data is article PMC6559209.

In the assay the target is YlHD, hydrophilic domain of the Yarrowia lipolytica group 3 LEA protein (Yarrowia lipolytica). Put plainly: MST; HD labelled with RED-NHS at 2 uM; label-free LDH titrated, diluted from 71 uM; binding buffer 20 mM HEPES, 150 mM KCl, pH 7.4 (the legend says phosphate buffer); normal conditions; Monolith NT.115, 20% LED, 60% MST power.

The substance lactate dehydrogenase (LDH) (enzyme) had a Kd of 5.03 µM.
